# Experimental data reported in patent US11459578B2, “Carbon fixation systems in plants and algae” (NMC, INC., priority 2014, dated 2022).
# “Also recorded” adds a separate entry of the source.
# B1: LCIA: chloroplast envelope localized bicarbonate anion transporter, expressed in transgenic plants (protein, listed as Chlamydomonas reinhardtii)
# chain: MQTTMTRPCLAQPVLRSRVLRSPMRVVAASAPTAVTTVVTSNGNGNGHFQAATTPVPPTPAPVAVSAPVRAVSVLTPPQVYENAINVGAYKAGLTPLATFVQGIQAGAYIAFGAFLAISVGGNIPGVAAANPGLAKLLFALVFPVGLSMVTNCGAELFTGNTMMLTCALIEKKATWGQLLKNWSVSYFGNFVGSIAMVAAVVATGCLTTNTLPVQMATLKANLGFTEVLSRSILCNWLVCCAVWSASAATSLPGRILALWPCITAFVAIGLEHSVANMFVIPLGMMLGAEVTWSQFFFNNLIPVTLGNTIAGVLMMAIAYSISFGSLGKSAKPATA
# Tests used:
# Assay type in all cases: in vivo
# Camelina [1] = test: Growth phenotypes and seed recovery of transgenic Camelina
# Text: (§1) Previously, reconstitution of a functional inorganic CCM in C3 plants to suppress photorespiration and enhance photosynthesis was proposed. In WO 2012/125737, it was hypothesized that expression of a minimum of three algal CCM proteins would be sufficient to elevate internal plastid CO2 concentrations high enough to suppress photorespiration. These three algal CCM genes included the Chlamydomonas plasma membrane-localized and ATP-dependent bicarbonate transporter, HLA3; the chloroplast envelope localized bicarbonate anion transporter, LCIA; and a chloroplast stromal-localized carbonic anhydrase (HCA-II) to accelerate conversion of bicarbonate into CO2. […] To test this hypothesis, we generated multiple independent transgenic Arabidopsis and Camelina plants expressing each CCM gene as a single gene construct, as well as a stacked 3-gene construct. The expression of each gene was controlled by the light-regulated Cab1 gene promoter.
# Arabidopsis = test: Growth phenotypes of transgenic Arabidopsis
# Text: as §1
# Finally, we also grew transgenics on ammonium with sucrose which would presumably provide additional ATP via respiration. We hypothesized that growth on nitrate or ammonium with sucrose would provide additional ATP that could potentially drive HLA3 activity.
# Camelina [2] = test: CO2-dependent photosynthetic rates of transgenic Camelina
# Text: FIGS. 5A-5C. Growth phenotypes of WT and LCIA transgenic (T1) Arabidopsis plants four weeks after germination. (B) Four-week-old WT (left 4 plants) and independent transgenic Camelina (right 4 plants) expressing LCIA. (C) CO2-dependent photosynthetic rates of WT and LCIA transgenic Camelina.
# We propose that the substantially greater carbon sink-strength of Camelina relative to Arabidopsis accounts for the enhanced growth phenotype observed in Camelina LCIA plants. In support of this hypothesis, we observed that Camelina LCIA transgenics had higher CO2-dependent rates of photosynthesis and lower CO2 compensation points (40 vs. 53 ppm CO2) than WT plants indicative of facilitated inorganic carbon uptake by LCIA (FIG. 5C).
molecule,measurement,setting,value
B1,growth phenotype / viability relative to WT,Camelina [1],grew better than WT; also recorded: increased growth rates
same,growth phenotype relative to WT,Arabidopsis,substantially impaired in growth; also recorded: severely depressed growth phenotypes
same,CO2-dependent photosynthetic rates relative to WT,Camelina [2],higher CO2-dependent photosynthetic rates
same,CO2 compensation point,Camelina [2],40 ppm CO2
same,CO2 compensation points relative to WT,Camelina [2],reduced CO2 compensation points
same,higher photosynthetic rates than WT,Camelina [2]; ambient CO2 concentrations,up to 25%
